Results reported in the DeepSol protein solubility set.

Experiment: soluble on expression in E. coli; label from the status in PepcDB or PDB records

Q: Which “soluble on expression in E. coli” value does the source give for “MACKLLFWKLKDYQNILLYSPLGHELDIRPLIFRLRQKNKCVWLPKSIKKGAHFSKESFTIAPFRLPLRRLGWFDEPSLSRYYKQELDCIVVPILGMDTSFRRVGFGLGMYDRSLPQLLKRRLKRPLIVFVSRELAIANGVLTNAYDIEADLYMNARIVVKNNKRKHYEQRVNLHFIRSLGSVFDYRSSHVLCDEKDLLRLEHHHHHH” here?
A: Its value is “not soluble”.

Q: With “MGSDKIHHHHHHMNYLQIARNSLAAEQNALAKLSQNLNQQFNQVVELILNCEGRLVVGGIGKSGLIGKKMVATFASTGTPSFFLHPTEAFHGDLGMLKPIDIVMLISYSGESDDVNKLIPSLKNFGNKIIALTGNLNSTLAKHADYILDISVEREACPNNLAPTTSALVTLALGDALAVSLITARNFQPADFAKFHPGGSLGRRLLCRVKDQMQVRLPKVTENTNFTDCLTVMNEGRMGVALVMENENLKGIITDGDIRRALSANGTNTLNKTAKDLMTSNPKTINYNTYLSEAENFMKEKKIHSLVVVDDQNKVIGLVEFSS” as the sequence, how does the “soluble on expression in E. coli” value read?
A: The value was “not soluble”.

Q: For “GSHMTSFLHAYFTRLHCQPLGVPTVEALRTLHLAHNCAIPFENLDVLLPREIQLDETALEEKLLYARRGGYCFELNGLFERALRDIGFNVRSLLGRVILSHPASLPPRTHRLLLVDVEDEQWIADVGFGGQTLTAPLRLQAEIAQQTPHGEYRLMQEGSTWILQFRHHEHWQSMYCFDLGVQQQSDHVMGNFWSAHWPQSHFRHHLLMCRHLPDGGKLTLTNFHFTRYHQGHAVEQVNVPDVPSLYQLLQQQFGLGVNDVKHGFTEAELAAVMAAFDTHPEAGK”, which “soluble on expression in E. coli” value is on record?
A: Its value is “soluble”.

Q: Which “soluble on expression in E. coli” value does the source give for “MSLAKPKVIVPMVTPLRGGSVDKNAASWLASRLSESGVDGVFVPGTTGEWYLLDPHERAEAFFAVASSAIAGLRLVAGVSGYRPEESYRLAEEAAGHGAHAVMAVPPIYFRPSTDFLREFYGEIKRRAGGLPTYIYIFPERMGYTLAVEQVESLVEAGVVDGIKATVTDAAYIAGLAAVKERNPEFEVLAGGLEMLVHTSLSGGDGVVDAYSNVAPKLAVELAESLEKGSVERVAGLQGRVLKLSRILGKRSLPAVLKAVLHVLGAPITGEVRKPLKPLTQPEANATANALCTSYRDYLLPGEGHHHHHH” here?
A: Its value is “soluble”.

Q: With “SASDFEERVVTIPLRDARAEPNHKRADKAMILIREHLAKHFSVDEDAVRLDPSINEAAWARGRANTPSKIRVRAARFEEEGEAIVEAETAE” as the sequence, how does the “soluble on expression in E. coli” value read?
A: The value was “soluble”.

Q: For “MRLVEIGRFGAPYALKGGLRFRGEPVVLHLERVYVEGHGWRAIEDLYRVGEELVVHLAGVTDRTLAEALVGLRVYAEVADLPPLEEGRYYYFALIGLPVYVEGRQVGEVVDILDAGAQDVLIIRGVGERLRDRAERLVPLQAPYVRVEEGGIHVDPIPGLFDLEHHHHHH”, which “soluble on expression in E. coli” value is on record?
A: Its value is “not soluble”.

Q: For “MSLAKDKDTLDFIRNLCQKRHVCIQSSLAKVSSKKVNEKDVDKFLLYQHFSCNIRNIHHHQILAINRGENLKVLTVKVNISDGVKDEFCRWCIQNRWRPRSFARPELMKILYNSLNDSFKRLIYPLLCREFRAKLTSDAEKESVMMFGRNLRQLLLTSPVPGRTLMGVDPGYKHGCKLAIISPTSQILHTDVVYLHCGQGFREAEKIKTLLLNFNCSTVVIGNGTACRETEAYFADLIMKNYFAPLDVVYCIVSEAGASIYSVSPEANKEMPGLDPNLRSAVSIARRVQDPLAELVKIEPKHIGVGMYQHDVSQTLLKATLDSVVEECVSFVGVDINICSEVLLRHIAGLNANRAKNIIEWREKNGPFINREQLKKVKGLGPKSFQQCAGFIRINQDYIRTFCSQQTETSGQIQGVAVTSSADVEVTNEKQGKKKSKTAVNVLLKPNPLDQTCIHPESYDIAMRFLSSIGGTLYEVGKPEMQQKINSFLEKEGMEKIAERLQTTVHTLQVIIDGLSQPESFDFRTDFDKPDFKRSIVCLEDLQIGTVLTGKVENATLFGIFVDIGVGKSGLIPIRNVTEAKLSKTKKRRSLGLGPGERVEVQVLNIDIPRSRITLDLIRVLEGHHHHHH”, which “soluble on expression in E. coli” value is on record?
A: The value was “soluble”.

Q: Which “soluble on expression in E. coli” value does the source give for “LHAEGPPSVICIRLLVGLVFLSEGIQKFMYPDQLGPGRFERIGIPAATFFADLDGVVEIVCGTLVLLGLLTRVAAVPLLIDMVGAIVLTKLRALQPGGFLGVEGFWGMAHAARTDLSMLLGLIFLLWSGPGRWSLDRRLSKRATACGAR” here?
A: The value was “not soluble”.

Q: With “MGSDKIHHHHHHNEKGGGTGSSSVGADTEPSVTGVHWTVDSVTVNGTTHQAPDGAHVEIAEDGRATGNYGCNSFHSTATFKGDRITLSRTLSTEMACEKRPMEFETTLARALAAGPLTAEAGQGKLTLTTAKGDRVHLTEEKDAPLYGTKWTVNSLIGGDVAQSLPAAADGKAWLTFTKKSESGDKKSGEKERGDKEVGTVSGSLGCNRVSAMATVRGSHITLGAPRTTRQMCSGSLMTTEKSLLKLFDSTVSYRIDHRAITLTSENGEGIGAIADR” as the sequence, how does the “soluble on expression in E. coli” value read?
A: The value was “not soluble”.

Q: Which “soluble on expression in E. coli” value does the source give for “MKYRDLREFLNLLEQQGELVRVKQEIDPYLEMAEIADRTLRKAGPAILFENPKGYQMPVLCNLFGTPKRVALGMGQENTQALRELGKLLAFLKEPEPPKGFKELLGQLPQWKQILNMPSKTRDNAACQQIVIEGDAVNLYDLPIMHCHEEDIAPLITWGLTITQGPHKKRQNLGIYRQQLIAKNKLIMRWLSHRGGALDFQEWKATYPDKPFPVSVAIGADPATILAAVTPIPDTLPEYAFAGLLRGHKTEVIKSISNQLDVPASAEIVLEGYIDVNETALEGPYGDHTGYYNEQEYFPVFTVTHITMRKDAIYHSTYTGRPPDEPAVLGEALNEVFIPILQKQFPEIVDFYLPPEGCSYRLAVVTIKKQYAGHAKRVMMGVWSFLRQFMYTKFVIVCDDDINARNWKDVIWAITTRCDPSRDTTLIENTPIDYLDFASPIAGLGSKMGIDATNKWNGETIREWGKPITKNQQVVQHIDELWDQLGLLEHHHHHH” here?
A: The value was “not soluble”.

Q: Which “soluble on expression in E. coli” value does the source give for “MAVDGLVSEKIKELLKELGKTYKLVVLTADTYGTLEKEFNGLPITVDKIKNEIEKEKAAEKYSPYIGIGNGNNDCLMLEKSELGILIIGEEGASTNALLKSDIVINNIKDAINLLLNEKRIIATL” here?
A: Its value is “not soluble”.

Q: Which “soluble on expression in E. coli” value does the source give for “MPNLPQKAQQRQPQEHKSRHKATDDTEAPKQQQQQQQQQQSFDVATNANGSSLPASRVKNPEEPGGKSPLVPMRQHHSKVTRPPPPPTLFLENSLLQRQFANPISYLGGPRLQPRSNRTSIDSILSLDLEHHHHHH” here?
A: Its value is “not soluble”.

Q: With “MSPRDVLDSIFAFPPNRDTLGGTSYLIVGNEGNILIDCPALDQTNLNFLRSHGGVRWLFLTHRGAIGRTAEIQQNYGCDILIQEQEAYLLPGLTVTTFTQEFAVTPTAKAIWTPGHSPGSSCLYYNHQGGVLFSGRHLLPNQKGEPVPLRTAKTFHWPRQIKSLQTILETLTPETLQYICPGANTGFLRGKRSIDTAYQRLASLDLKALLQTQPLILEHHHHHH” as the sequence, how does the “soluble on expression in E. coli” value read?
A: The value was “soluble”.

Q: With “MALNLKQRLEQKFEEEIRFFKGMVSQPKKVGAIVPTSSITAKKMASVINPHSGLPVLELGPGTGVITKAILARGIKPESLTAIEYSTDFYNQLLRSYPGVNFVNGDAFDLDATLGEHKGQMFDSVISAVPMLNFPMAARIKLLDELLKRVPHGRPVVQISYGPISPIVAQPHLYHIRHFDFIVRNIPPAQLWTYTRALEHHHHHH” as the sequence, how does the “soluble on expression in E. coli” value read?
A: Its value is “not soluble”.

Q: With “MGSDKIHHHHHHHTDKAEFLDFSNLTQYRQDVKTLASDAFEGRAPLSKGETLTLDFLVNAFKEMGLAPGFGDSYLQAVPMAKITAKQDMQLTIGALKFTHGKDFTARSQQIKPHIALNNSEVVFVGYGINAPEFGWNDYAGIDVKGKTVIMLVNDPGFATQDNKRFKGNAMTYYGRWTYKYEEAARQGAAAVFIVHETAPAGYGWGVVENSNTGSKFTLVDDNNNLSQIAVMGWLQHKATQQIFATAGLDFDSLKLSTHKAGFKTVDLNLSAKLNLDNSIEMAKSHNVLALLPGATEFDGKRNPQQDELVVMHAHWDHLGSKTHQDGSQEIFNGAVDNASGTAGVLALARAFKAKASVTPFKRSILFSAFTAEETGLIGAQYFAQNPSVPTKNIAAFLNIDGMNVNDGVSYILQYGQGVSELEDYLEDAAKAQQRTVKADPLPQNGLMFRSDHFALAQEGVPGLLFMSLGDTDPNYIDAKYHKEADDYDANWSLGGVSQDLSLIGSILARLANNSDWPKWLEDSDFKTRRSEDNR” as the sequence, how does the “soluble on expression in E. coli” value read?
A: Its value is “not soluble”.

Q: For “MSLANAFGKEKNIKEFYALKGVSFEISKGECVGIIGHNGAGKSTLLKLLTGVAFPTSGEIEINGRLASMLELGSGFNPELTGMENIYFNGSLNGLTKEEIDGKLKDILEFADIGNFIEQPVKNYSSGMFARLAFAVAINVDPDILIVDEILSVGDVGFQVKCMEKFNEFKKKGKTILYVSHGLGTVKKFCDRAIWLQKGEVVDDGNSVIVVERYYNLNFNPANIEQLKDHKSDIINSIAVKSNTKNVEYLEKLDLEVEYDLISNDLKDPNIVLEFRKTDYEPGTTRGNDQFVCGINSKDNIKNIPFNLGVNKLKVSLNKVNLVAGVYYIDFVLRDGEEEVYRKINGYSFTLNDKYRGEGFLILGHSWGNEGHHHHHH”, which “soluble on expression in E. coli” value is on record?
A: Its value is “not soluble”.

Q: Which “soluble on expression in E. coli” value does the source give for “MASSSSTLPLHMYIRPLIIEDLKQILNLESQGFPPNERASEEIISFRLINCPELCSGLFIREIEGKEVKKETLIGHIMGTKIPHEYITIESMGKLQVESSNHIGIHSVVIKPEYQKKNLATLLLTDYIQKLSNQEIGNKIVLIAHEPLIPFYERVGFKIIAENTNVAKDKNFAEQKWIDMERELIKEEYDN” here?
A: Its value is “soluble”.

Q: With “MNESERKIVEEFQKETGINFKNEELLFRALCHSSYANEQNQAGRKDVESNEKLEFLGDAVLELFVCEILYKKYPEAEVGDLARVKSAAASEEVLAMVSRKMNLGKFLFLGKGEEKTGGRDRDSILADAFEALLAAIYLDQGYEKIKELFEQEFEFYIEKIMK” as the sequence, how does the “soluble on expression in E. coli” value read?
A: The value was “not soluble”.

Q: For “MAHHHHHHMKNGKPMGGRETQKQKQKQKQVTLLTWINRANQPRQLTRKTKKAHEKQEERRIWLGAAKRLPQKMPQSMRCNYDIRTHINTHIHKHSHSHSHQLQTYTRTHHLSQKEMKRNEPQDIIRFHSNTQEPAGSTSSHVVTRLVITLLLLCTTQICPTSTEAVERGKQGALLFR”, which “soluble on expression in E. coli” value is on record?
A: The value was “soluble”.

Q: For “MSRRLRRTKIVTTLGPATDRDNNLEKVIAAGANVVRMNFSHGSPEDHKMRADKVREIAAKLGRHVAILGDLQGPKIRVSTFKEGKVFLNIGDKFLLDANLGKGEGDKEKVGIDYKGLPADVVPGDILLLDDGRVQLKVLEVQGMKVFTEVTVGGPLSNNKGINKLGGGLSAEALTEKDKADIKTAALIGVDYLAVSFPRCGEDLNYARRLARDAGCDAKIVAKVERAEAVCSQDAMDDIILASDVVMVARGDLGVEIGDPELVGIQKALIRRARQLNRAVITATQMMESMITNPMPTRAEVMDVANAVLDGTDAVMLSAETAAGQYPSETVAAMARVCLGAEKIPSINVSKHRLDVQFDNVEEAIAMSAMYAANHLKGVTAIITMTESGRTALMTSRISSGLPIFAMSRHERTLNLTALYRGVTPVHFDSANDGVAAASEAVNLLRDKGYLMSGDLVIVTQGDVMSTVGSTNTTRILTVE”, which “soluble on expression in E. coli” value is on record?
A: Its value is “soluble”.

Q: Which “soluble on expression in E. coli” value does the source give for “MSVDKYGKVYLIGAGPGNPNYLTKKAERLIREADVILYDRLVNPLILQYANLTTEIIDVGKKPYAKHIQQEKINECIVEAARRYNKVVRLKGGDPAIFGRVQEEVDTLNNFNIAFEIVPGVTSASAAVATMQTGLTMRAVAKSVTFSTGHFKDSEENEVDVNALVNGGTLAIYMGVKRLGKIIAQIQQYTDIDYPIAIVFQASCFNEFVVKGRLSNIVGKLEHYAIEAKPGICIIGEVVGYTENVSTTSNPTQQFYVVSGSRHDALMLCEHLYDEGYGCLLNPNDTSNGTYHSSQYDYYDAFIKQQENVTYISTDRADANTVLCH” here?
A: Its value is “not soluble”.
